Assay results as given in the supplement of paper PMC7125110.
± gives the standard error. For part of these data: Variants at the floor of the assay were thinned out.

B1: glmS ribozyme (parent)
chain: AUAAAAGCGCCAGAACUACAGAAAUGUAGUUGACGAGGAGGAGGUUUAUCGAAUUUUCGGCGGAUGCCUCCAAA

Tests used:
Conditions in all cases: with glucosamine-6-phosphate
[1] = variants of: B1; assay: kcat; higher = faster cleavage; RNA array
Procedure, shortened: (§1)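 Barcoded glmS ribozyme variants on sequenced MiSeq chips were transcribed in situ by E. coli RNA polymerase and tracked through a hybridised Cy3 probe at 37 °C. Glucosamine-6-phosphate (40 μM to 10 mM) in HEPES/KCl/Mg(OAc)2 buffer was flowed in, and tiles were imaged over ~14 h. Signals were normalised to baseline and to non-cleaving reference variants; per-tile medians were fit to one- or two-exponential decays to give kobs. kcat and KM came from weighted Michaelis–Menten fits across concentrations.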

[2] = variants of: B1; assay: KM; higher = weaker cofactor use; RNA array
Procedure, shortened: as §1

[3] = variants of: B1; assay: self-cleavage kobs at 40 uM GlcN6P; higher = faster cleavage; RNA array
Procedure, shortened: as §1

[4] = variants of: B1; assay: self-cleavage kobs at 160 uM GlcN6P; higher = faster cleavage; RNA array
Procedure, shortened: as §1

[5] = variants of: B1; assay: self-cleavage kobs at 10000 uM GlcN6P; higher = faster cleavage; RNA array
Procedure, shortened: as §1

[6] = variants of: B1; assay: self-cleavage kobs at 640 uM GlcN6P; higher = faster cleavage; RNA array
Procedure, shortened: as §1

[7] = variants of: B1; assay: self-cleavage kobs at 2500 uM GlcN6P; higher = faster cleavage; RNA array
Procedure, shortened: as §1

Variant | kcat [1] [s⁻¹] | KM [2] [µM] | self-cleavage kobs at 40 uM GlcN6P [3] [s⁻¹] | self-cleavage kobs at 160 uM GlcN6P [4] [s⁻¹] | self-cleavage kobs at 10000 uM GlcN6P [5] [s⁻¹] | self-cleavage kobs at 640 uM GlcN6P [6] [s⁻¹] | self-cleavage kobs at 2500 uM GlcN6P [7] [s⁻¹]
AUAAAAGCGCCAGAACUACAGAAAUGUAGUUGACGAGGAGGAGGUUUAUCGUAUUUUCGGCGGAGGCCUCCAAA [A52U U65G] | 9.59e-05 ± 1.1e-06 | 9460 ± 180 | < 1e-05 | < 1e-05 | 4.93e-05 ± 1.8e-05 |  | 
AUAAAAGCGCCUGAACUACAGAAAUGUAGUUGACGAGGAGGAGGUUUAUCGAAUUUUCGGCGGAUGCGUCCAAA [A12U C68G] | 0.000191 ± 2.7e-05 | 624 ± 230 |  | 5.38e-05 ± 6.4e-06 | 0.000186 ± 1.6e-05 | 8.22e-05 ± 7.3e-06 | 0.00016 ± 1.2e-05
AUAAAAGCGCCAGAACUACAGAAAUGUAGUUGACGAGGAAGAGGUUUGUCGAAUUUUCGGCGGAUGCCUCCAAA [G40A A48G] | 4.48e-05 ± 1.1e-05 |  | < 1e-05 |  | 3.71e-05 ± 7.6e-06 |  | 4.6e-05 ± 7.9e-06
AUAAAAGCGCCAGAACUACAGAAAUGUAGUUGACGAGGAUGAGGUUUAUCGAAUUUUCGGCGGAUGCCUUCAAA [G40U C70U] | 0.00235 ± 0.00039 | 2200 ± 510 | 5.55e-05 ± 7.2e-06 | 0.000139 ± 1.4e-05 | 0.00186 ± 0.0002 | 0.000566 ± 6.5e-05 | 0.00132 ± 0.00013
AUAAAAGCGCCAGAACUACAGAAAUGUAGUUGACGAGGAGGAGGUAUAUCGAAUGUUCGGCGGAUGCCUCCAAA [U46A U55G] | 0.0019 ± 0.00044 | 1350 ± 440 | 5.8e-05 ± 7.5e-06 | 0.000169 ± 2.3e-05 | 0.00169 ± 0.00022 | 0.000893 ± 0.00011 | 0.001 ± 0.00022
AUAAAAGCGCCACAACUACAGAAAUGUAGUUGACGAGGAGGAGGUUUAUCGAAUUUUCGGCGGAUUCCUCCAAA [G13C G66U] | < 1e-05 | 766 ± 350 |  | < 1e-05 |  |  | 
AUAAAAGCGCCAGAACUACAGAAAUGUACUUUACGAGGAGGAGGUUUAUCGAAUUUUCGGCGGAUGCCUCCAAA [G29C G32U] | 0.000823 ± 0.00021 | 7540 ± 2900 |  |  | 0.000448 ± 0.00016 |  | 0.000226 ± 6.2e-05
AUAAAAGCGCCAGAACUACAGAAAUGUAGUUGACGAGGAGGUGGAUUAUCGAAUUUUCGGCGGAUGCCUCCAAA [A42U U45A] | 0.000149 ± 2.4e-05 | 1500 ± 680 |  |  | 0.000123 ± 1.6e-05 | 3.93e-05 ± 1e-05 | 0.000134 ± 2.6e-05
AUAAAAUCGCCAGAACUACAGAAAUGUAGUUGACGAGGAGGAGGUUUUUGGAAGUUUCGGCGGAUGCCUCCAAA [G7U A48U C50G U54G] | 3.22e-05 ± 1.3e-05 |  |  |  |  |  | 
AUAAAAGCGACAGAACUACAGAAAUGUAGUUGACGAGGAGGAGGUUUAUCGAAUUUCCGGUGGAUGCCUCCAAA [C10A U57C C61U] | < 1e-05 |  |  |  | < 1e-05 |  | 
AUAAAAGCGCCAGAUGUACAGAAAUGUAGUUGACGAGGAGGAGGUUUAUCGAAUUUUCCACGGAUGUCUCCAAA [A15U C16G G59C G60A C67U] | < 1e-05 |  |  |  |  |  | 
AUAAAAGCGCCAUAACUACAGAAAUGUAGUUGACGAGGAGGAGGUUUAUCGAAUUUUCGGCGGAUGUCUCCAAA [G13U C67U] | 0.000313 ± 1.9e-05 | 1680 ± 230 |  | 2.74e-05 ± 7.6e-06 | 0.000274 ± 2.4e-05 | 8.78e-05 ± 1.1e-05 | 0.000177 ± 2e-05
AUAAAAGCGCCAGAACUACAGAAAUGUAGUUGACGAGGAGGAGGUUAAUCGAAUUUUGGGCGGAUGCCUCCAAA [U47A C58G] | 0.000134 ± 1.1e-05 | 1740 ± 440 |  |  | 0.000117 ± 1.5e-05 | 4.54e-05 ± 1.7e-05 | 7.52e-05 ± 1.2e-05
AUAAAAUCGCCAGAACUACAGAAAUGUAGUUGACGAGGAGGAGGUUUAUCGAAUUUUCGGCGGAUGCCUCGAAA [G7U C71G] | 1.1e-05 ± 2.1e-06 |  |  | < 1e-05 |  |  | 
AUAAAAGCGUCAGAACUACAGAAAUGUAGUUGACGAGGAGGAGGUUUAUCGAAUUUUCGGCGGAUGCCUGCAAA [C10U C70G] | 2.35e-05 ± 4.9e-06 |  |  |  |  |  | 2.76e-05 ± 1.3e-05
AUAAAAGCGCCAGAACUACAGAAAUGUACUUGACGAGGAGGAGGUUUAUCGAACUUUCGGCGGAUGCCUCCAAA [G29C U54C] | 0.00154 ± 0.00063 |  | 6.42e-05 ± 1.4e-05 | 0.000153 ± 2.5e-05 | 0.0019 ± 0.00032 | 0.000301 ± 7.9e-05 | 0.000773 ± 0.00014
AUAAAAGCGCCAGAACUACAGAAAUGUAGUUGACGAGGAGGAGGUUUAUCGAAUUUCCGGCGGAUGCCUCCAAA [U57C] | 0.000311 ± 3.8e-06 | 3180 ± 76 |  | 1.34e-05 ± 2.2e-06 | 0.000236 ± 4.4e-06 | 5.24e-05 ± 1.5e-06 | 0.000136 ± 3.2e-06
AUAAAAGCGCCAGAACUACAGAAAUGUAGUUGACGAGGGGGAGGUUAAUCGAAUUUUCGGCGGAUGCCUCCAAA [A39G U47A] | 0.0304 ± 0.014 |  | 0.00119 ± 0.00019 | 0.00231 ± 0.00088 | 0.0441 ± 0.011 | 0.00788 ± 0.0025 | 0.0164 ± 0.005
